Test results from the DeepSol protein solubility set.

assay: soluble on expression in E. coli; label from the status in PepcDB or PDB records

Sequence	soluble on expression in E. coli
MSLSDLSAFAVTQKWPAQFPEWIQLYSLPTPNGVKVSVMLEEIGLPYEAHRVSFETQDQMTPEFLSVSPNNKIPAILDPHGPGDQPLALFESGAILIYLADKSGQLLAQESAARYETIQWLMFQMGGIGPMFGQVGFFNKFAGREYEDKRPLERYVNEAKRLLGVLDKHLGGREWIMGERYTIADIATFPWIRNLIGFYEAGELVGIDNFPEVKRVLAKFVARPAVIRGLEIPKVSEGHHHHHH	soluble
MSLSDPTNNKPAPVLRESATFDRLTIQEIQRAAETGIYDIRGGGTKRKLPHFDDLLLLGASVSRYPLEGYREKCGTDVVLGNRFAKKPLYLKIPVTIAGMSFGALSANAKEALGRGATIAGTSTTTGDGGMTPEERGQSQHLVYQYLPSRYGMNPDDLRKADAIEIVLGQGAKPGGGGMLLGMKVTERVAGMRTLPVGVDQRSACRHPDWTGPDDLAIKIAEIREITDWEKPIYVKIGASRPYYDVKLAVKAGADVIVLDGMQGGTAATQEVFIEHVGIPILPAIPQAVQALQEMGMHRKVQLIVSGGIRNGADVAKAMALGADAVAIGTAALIALGDNHPRLDEELKKIGSAAGFYDDWQNGRDPAGITTQDPELSKRLDPVEGGRRLANYLRVLVLEAQTMARACGKSHLHNLDPEDLVALTVESAAMARVPLAGTSWIPGSGSKGIITITTDPNSSSVDKLAAALEHHHHHH	soluble
MSLSDRVKKIESFTLTLPRETPYLGKPRPGEEPNGRGYLVRKANRTVYPTFDRSVLVRIETENGAVGWGETYGLVAPRATMEIIDDLLADFTIGRDPFDAAAIHDDLYDLMRVRGYTGGFYVDALAAIDIALWDLAGKLAGLPVCKLLGGQRRDRIAAYISGLPEDTRAKRAELAAAWQAKGFSSFKFASPVADDGVAKEMEILRERLGPAVRIACDMHWAHTASEAVALIKAMEPHGLWFAEAPVRTEDIDGLARVAASVSTAIAVGEEWRTVHDMVPRVARRALAIVQPEMGHKGITQFMRIGAYAHVHHIKVIPHATIGAGIFLAASLQASAALANVDCHEFQHSIFEPNRRLLVGDMDCLNGEYVVPTGPGLGVEPSKEAQGLLKKHEGHHHHHH	soluble
MSLSDSQTLVVKLGTSVLTGGSRRLNRAHIVELVRQCAQLHAAGHRIVIVTSGAIAAGREHLGYPELPATIASKQLLAAVGQSRLIQLWEQLFSIYGIHVGQMLLTRADMEDRERFLNARDTLRALLDNNIVPVINENDAVATAAIKVGDNDNLSALAAILAGADKLLLLTDQKGLYTADPRSNPQAELIKDVYGIDDALRAIAGDSVSGLGTGGMSTKLQAADVACRAGIDTIIAAGSKPGVIGDVMEGISVGTLFHAQATPLENRKRWIFGAPPAGEITVDEGATAAILERGSSLLPKGIKSVTGNFSRGEVIRICNLEGRDIAHGVSRYNSDALRRIAGHHSQEIDAILGYEYGPVAVHRDDMITREGHHHHHH	soluble
MSLSDTEKKIADTKGQFLQAVSQGQRLTDAEWRNCRIVLTTERVALLGDDKRQISLTDIDRIADRFDVNQQSAGVSDYVALYVGEDVILVSASDHGTFETDFYRASLDGAIVLVQHPALKGGVVQSAEWTKGRLKVTDEALKLAMADGQAVVIDRADIGDLAVEEKQVSGEERTVIQVEHSEEDISVETHLAGEEFHATVLRTMLEESAEQNQADLDLSSTEKRVIMALHSGVSPFDIPNFVGIDVEKTEEIFDRLIELDVISVLRERTEVNLTTKGRRVAGERMGEQEGHHHHHH	not soluble
MSLSETASWQPSASIPNLLKRAAIMAEIRRFFADRGVLEVETPCMSQATVTDIHLVPFETRFVGPGHSQGMNLWLMTSPEYHMKRLLVAGCGPVFQLCRSFRNEEMGRYHNPEFTMLEWYRPHYDMYRLMNEVDDLLQQVLDCPAAESLSYQQAFLRYLEIDPLSADKTQLREVAAKLDLSNVADTEEDRDTLLQLLFTFGVEPNIGKEKPTFVYHFPASQASLAQISTEDHRVAERFEVYYKGIELANGFHELTDAREQQQRFEQDNRKRAARGLPQHPIDQNLIEALKVGMPDCSGVALGVDRLVMLALGAETLAEVIAFSVDRAEGHHHHHH	soluble
MSLSFSMKIKNIPYYVATRVVKRIQSWLGLNTLGARAIVTNAEGHVLLVKHTYQPHWYLPGGGVKKGESTKAAVIRELHEEVGLVVAEQDVILFGIYHHKYLGVNDYPVIYIVKNFTSHVTHSGEIEQIGWFSLDALPEMVSPGTKRRLGEYFDNNPISEGHHHHHH	not soluble
MSLSFYERYLEYKNFDFENFFDQVTDRDIINIINKDRRLSELEFLMLLSKKAVKYLEPLAQKANRITVQNFGKVIFLYTPMYLANYCVNQCIYCGFNITNNIKRRKLTLDEVEKEAYAISSTGLRHILILTGESRKESPVQYIKDCVKILQKYFRSISIEVYPLEENEYAELIEAGVDGLTIYQEVYDEEKYKALHLKGPKRNYLYRLDAPERACKASMRNVNIGALLGLHDWRTEAFYTGLHADYLQNKYPDVEIGLSLPRIRPHPCGSFVPDCKVEDRDLVQIMIAYRLFMPRAGIAISTRERESLRNNLIGLGVTKMSAASSTEVGGHTLGDKSDGQFDVNDRRGVEEMRQMIYSKGYQPVFKDWQAEGHHHHHH	soluble
MSLSGDLVSLKVVVFDIGNVLLRWDPRLLYRKIFSEENQMEWFLSQVCSEAFNRKLDGGAPFAAAIEALVAQFPDFSKEIRAYDERWLETTSGPIPETFAILEELVAEGVPLYAITNFSYEKFEVARCAFELFDRFDGIVVSGAEGVVKPEAPIYRLLLDRYGLDASDCLFIDDSAANVDGARAVGMQGYHYRDPISLRWKLTECGLLCRKSDLNDKGQVLEKREGHHHHHH	soluble
MSLSGKENPNICFLPTATGDADEVIERFYNAKLSENVTHFPLFKFDAGWKETLFEQDIIYVGGGNTRSMLAIWREWGIDRILKQCYEQGIIICGMSAGAICWFEFAVTDSDPEAYQVMRCLGLIDGLAAAHFSHVGEKFEVFQAFARSQPSITCYGIHDYAALHFVDGKLLATVTSFPDAGVLVKTGNDENILRGEGHHHHHH	not soluble
MSLSGRAGRHERTGEVIVQSYNPEHYSIEFAKKHDFIGFYNHEMQLRKMGSYPPFYYLTMINVSDENEMKAIRTIQEMAQFLRGKLGPDAVILGPVPSTITRIKNKYRYQCIIKYKIEPNLKKELKTLITHYQKDQQKGLTITIDVQPYVLMEGHHHHHH	soluble
MSLSHSEKDVHEMGRFLLSTIKGSILELAFSHGEVEGLSFEKKVTILEIEDLDLPTDRHDELDENQRLSVTLMFALGTFCSKFGSRNRKEETVTFFDEAWIFQSSPEGQKILKSMKRIGRSFNNFMVLITQSVNDVLDNGDGTGFGTVVCFDEVDNREGILRYLKLPVNEINLKWVSNMIQGQCLMKDMFNQVNRIVIDVIFEEWLELFETVDEGHHHHHH	not soluble
MSLSILNSLKNIAFIGFYFIFAVNKMSRADEGRLIHLAKKREREKEDIEQQLRKLEEDKEKCRVGITNKFMANYETVEEVVKSKTYGLVSLDDMKNIQKNEISNRDLQVARGDQSSSTQSKDSQEAREKEEHVAKHTQKRFLSFAFDDEEDEEDAAPIIPKKRVGMDPTVDTSFLPDKEREEFLRKKKESLAAEWRVKQDAEKNEEITVAYAYWDGSSHRKNMKIKKGNTISQCLGRAIEALKKEFTELKSCTAENLMFVKEDLIIPHFYTFQDFIVTKAMGKTGPLFVFDSASDVRIRQDAALDYGESHPAKIVLRSWYEKNKHIYPASRWEPFVPSKKYGRNFDDLSDL	not soluble
MSLSITFFVTGDNHLGYYEKNLTLKDDCYKLFEQYLKEATQKEGSILLQCGDLFNDLRPNKSCVSKTANLIKKYCIGDADIPYTIKDEAELSYPLNITDPYINVKHPLFTIHGTNDEPSGYKLIAGSEILASCGLVNYISPKSFEEEKMLKPVIIVNEHTKIALYGLSVLYSSDLDEIVEDETFHIKKPNGNDWICILLLYIGKGTISQTTKDIIEKHFNIIILGGQHSCNIPTGDFNGSVIIQPGSPFFLSFDEYDEIKKGFVKIVVEGQKIYIEKKEYKPIHRMIKKEVYIPETLRDCVISKRIEDFIQQEMKKCITEAVIKENEQILLKLIVKDCNQDCYPDTKKISSLLEEDVVNFIDCIKVKKEGHHHHHH	not soluble
MSLSKASLQEMAVKYIAEQIGEHDSEQIHLSALPLDSRIPDRACSTTPDIISSSEPPFNRQITIQVKCDDPQSWAQYVHIKVLKMAPVVVTTDNIARGEVITSAHITVEMKPTHFVRVQYQDDPKALIGSRSKRNIREGMPILLNQICMVCKGDAINIYASTKGLQIKTTGVALEDGTLGEQILVENKKTGKVLNARVDGVESVQVNIEGHHHHHH	not soluble
MSLSKDEELLQNYCSILFTYKTIGISNLHLYYFRETEIKSLKQLINAEFAILQTCNRVEIYLYSDTNTLKEVNKIIQYLNNIHNEPIGNQARVLCGKDAAKHLFLVASGADSLSIGEYEILSQIRSTIDMFKKLGFSGKYLQIFFERAIKVGRKVREETSISKGKVGIYSLAIDEAKKRFNDFYDRRILVIGAGEMAQKITSMLHNEGAKDVTIMNRTIEKAKQLALKFGYNYEKLDLDKLGNFDVAFISIYHENLRLENKWNTLIVDITVPPLFTGNNVITLEELERISNLNFKAREEELAKINKLVEDGINELLYDYKKEIYTEFMSKIMKREGHHHHHH	soluble
MSLSKFAERLQTVANKPEVFQKFSRGLERESLRYTPEGALTQTPHPKALGAALTHRWITTDFAESLLEFITPVSHEVDTLLAQMSDIHHFAQTKLGDEKLWPLSMPCYVGSEEGIVLAQYGSSNTGKMKTLYREGLKRRYGSLMQIISGVHFNFSFPESFWDALFGEQEESARQASKSAAYFGVIRNYYRFGWLIPYLFGASPALCSSFLQGRKTDLPFESIGKTLYLPYATSLRLSDLGYTNSAQSVLQIGFNSIEQYLQGLNEAIRTPSAEFAKLGVKVEGEYRQLNSNVLQIENELYAPIRPKRVTQSGERPSQALARAGVEYIEVRSLDVNPFSPIGINEDQVRFLDLFLAWTALSDSDPMDGCELACWRDNWRKVVLEGRKPGLELQIGCHGEVLTLQAWAKRVFADLRVIAETMDAALGGDAYQAVCAKLETWIENPELTLSAQILAEIKQHGGLGKTGCALGNEYRAVNLQHQYQFYSQDEMEQEVRRSTQAQADIEAKETLNFDAYLTQYFAYLQAVSEGGSHHHHHH	soluble
MSLSKTLLEIRLNSLIDLRMFYFISLYFRLENKESHKSQEIGNLIRVYNRSKREEAESEPLNLYVEDEKGNLLAGLIAETFGNWLEIEYLFVKEELRGQGIGSKLLQQAESEAKNRNCCFAFVNTYQFQAPDFYQKHGYKEVFSLQDYLYIRQRYYYQKNLEGHHHHHH	not soluble
MSLSLPSSHFVLIAEEENNSYWRLVEKGAREAENQFDVLVEYKAPKRSNPEEQLKLIDMAISAKVDGIIVQAVNEEMFTPLINKAVDAGIPVITIDTDAPRSNRVAYIGTDNYYSGTIAGKAMLDDMEGDIHVAVITGSLESSHQKLRVQGFIDMISNEPRVTLVEVEASNISRLEAELKAHQLMEEHPHINAFYGTSALDGIGIVAAAEKLGLDDLYVIAFDTLPENLSLLEQEKIDAIVVQEPFEMGLKSVELLLDIREGQPYSMTNHTHTSIIRKPDLSLLQEHQRLGDEGHHHHHH	soluble
